Molecular target: IgG1k from human myeloma plasma (IgG1 MC) (human)
Assay: SPR

Kd | Substance
309 nM | human Fcγ receptor IIa (hFcγRIIa) (from UniProt P12318 34-217)
3360 nM | human Fcγ receptor IIb/c (hFcγRIIb/c) (from UniProt P31994 43-217)

Reference: article PMC10214761
